# Test results from publication PMC7360973.
# Test system: Hsf1 wt (trimer) (human)
# Assay: fluorescence polarization
# Settings: printed as <= 5 nM; 25 C; Hsf1 SEC buffer: 25 mM HEPES/NaOH pH 7.5, 150 mM NaCl, 10% glycerol, 2 mM DTT; FP at 25 C (5 nM DNA titration; 25 nM DNA and 100 nM trimer for dissociation) …
substance,measurement,value
3xHSE DNA (Alexa Fluor 488),Kd,< 5 nM
